Paper PMC11125477 (PLOS ONE, 2024)

Target: T1, MAMDC4 (UniProt Q63191 22-1216)
T1 construct: HEK293 cells also hold endogenous (human) MAMDC4, which the anti-MAMDC4 antibody may precipitate as well; also called Endotubin; AEGP; source: HEK293, transfected (overexpressed), in lysate
Assay: co-IP; HEK293 cells overexpressing MAMDC4, control or 50% Wnt3a conditioned media for 6hrs; NP-40 lysis buffer; lysates precipitated with anti-MAMDC4 (hybridoma supernatant) or control IgG on Protein G Dynabeads overnight at 4°C; immunoblot; input 1/50th of lysate
Settings: partners not purified

T1 sequence (Q63191 22-1216): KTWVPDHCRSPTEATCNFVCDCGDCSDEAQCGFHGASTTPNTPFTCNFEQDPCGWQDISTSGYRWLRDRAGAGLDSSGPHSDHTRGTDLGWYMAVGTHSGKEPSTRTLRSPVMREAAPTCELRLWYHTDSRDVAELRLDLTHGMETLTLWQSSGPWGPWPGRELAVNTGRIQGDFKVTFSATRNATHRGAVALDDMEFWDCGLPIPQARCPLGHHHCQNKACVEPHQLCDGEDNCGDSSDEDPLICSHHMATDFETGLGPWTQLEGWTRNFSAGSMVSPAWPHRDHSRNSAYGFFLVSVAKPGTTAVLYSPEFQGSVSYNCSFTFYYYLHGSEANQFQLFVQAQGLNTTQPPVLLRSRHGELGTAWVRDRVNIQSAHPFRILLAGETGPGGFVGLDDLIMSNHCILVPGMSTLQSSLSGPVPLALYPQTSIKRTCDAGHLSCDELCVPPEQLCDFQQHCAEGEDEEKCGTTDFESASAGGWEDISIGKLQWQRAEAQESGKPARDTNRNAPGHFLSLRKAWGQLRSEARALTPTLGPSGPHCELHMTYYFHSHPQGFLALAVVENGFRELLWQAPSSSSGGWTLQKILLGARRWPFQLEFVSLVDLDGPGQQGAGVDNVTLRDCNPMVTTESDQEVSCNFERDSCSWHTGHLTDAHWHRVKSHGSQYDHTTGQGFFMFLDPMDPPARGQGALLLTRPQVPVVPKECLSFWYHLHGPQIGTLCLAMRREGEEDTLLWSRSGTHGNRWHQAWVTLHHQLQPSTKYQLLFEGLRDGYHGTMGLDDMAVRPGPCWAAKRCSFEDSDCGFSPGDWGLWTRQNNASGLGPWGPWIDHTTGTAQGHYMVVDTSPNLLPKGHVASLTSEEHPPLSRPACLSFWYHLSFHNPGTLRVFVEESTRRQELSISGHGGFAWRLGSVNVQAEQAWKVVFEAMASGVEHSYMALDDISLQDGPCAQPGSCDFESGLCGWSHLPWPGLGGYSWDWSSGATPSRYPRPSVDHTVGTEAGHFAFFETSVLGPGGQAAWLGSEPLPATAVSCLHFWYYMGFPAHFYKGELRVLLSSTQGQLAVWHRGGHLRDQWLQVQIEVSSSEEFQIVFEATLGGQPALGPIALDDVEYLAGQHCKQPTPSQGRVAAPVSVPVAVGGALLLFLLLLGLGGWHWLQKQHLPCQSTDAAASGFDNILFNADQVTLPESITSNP

Binder	ratio of signal from immunoprecipitation relative to input
LRP6 (receptor, human (endogenous in HEK293), UniProt O75581 20-1613, looked up, LRP6, endogenous in HEK293 cells, detected with rabbit anti-LRP6 (CST 2560); also called total LRP6; source: endogenous, HEK293 lysate) APLLLYANRRDLRLVDATNGKENATIVVGGLEDAAAVDFVFSHGLIYWSDVSEEAIKRTEFNKTESVQNVVVSGLLSPDGLACDWLGEKLYWTDSETNRIEVSNLDGSLRKVLFWQELDQPRAIALDPSSGFMYWTDWGEVPKIERAGMDGSSRFIIINSEIYWPNGLTLDYEEQKLYWADAKLNFIHKSNLDGTNRQAVVKGSLPHPFALTLFEDILYWTDWSTHSILACNKYTGEGLREIHSDIFSPMDIHAFSQQRQPNATNPCGIDNGGCSHLCLMSPVKPFYQCACPTGVKLLENGKTCKDGATELLLLARRTDLRRISLDTPDFTDIVLQLEDIRHAIAIDYDPVEGYIYWTDDEVRAIRRSFIDGSGSQFVVTAQIAHPDGIAVDWVARNLYWTDTGTDRIEVTRLNGTMRKILISEDLEEPRAIVLDPMVGYMYWTDWGEIPKIERAALDGSDRVVLVNTSLGWPNGLALDYDEGKIYWGDAKTDKIEVMNTDGTGRRVLVEDKIPHIFGFTLLGDYVYWTDWQRRSIERVHKRSAEREVIIDQLPDLMGLKATNVHRVIGSNPCAEENGGCSHLCLYRPQGLRCACPIGFELISDMKTCIVPEAFLLFSRRADIRRISLETNNNNVAIPLTGVKEASALDFDVTDNRIYWTDISLKTISRAFMNGSALEHVVEFGLDYPEGMAVDWLGKNLYWADTGTNRIEVSKLDGQHRQVLVWKDLDSPRALALDPAEGFMYWTEWGGKPKIDRAAMDGSERTTLVPNVGRANGLTIDYAKRRLYWTDLDTNLIESSNMLGLNREVIADDLPHPFGLTQYQDYIYWTDWSRRSIERANKTSGQNRTIIQGHLDYVMDILVFHSSRQSGWNECASSNGHCSHLCLAVPVGGFVCGCPAHYSLNADNRTCSAPTTFLLFSQKSAINRMVIDEQQSPDIILPIHSLRNVRAIDYDPLDKQLYWIDSRQNMIRKAQEDGSQGFTVVVSSVPSQNLEIQPYDLSIDIYSRYIYWTCEATNVINVTRLDGRSVGVVLKGEQDRPRAVVVNPEKGYMYFTNLQERSPKIERAALDGTEREVLFFSGLSKPIALALDSRLGKLFWADSDLRRIESSDLSGANRIVLEDSNILQPVGLTVFENWLYWIDKQQQMIEKIDMTGREGRTKVQARIAQLSDIHAVKELNLQEYRQHPCAQDNGGCSHICLVKGDGTTRCSCPMHLVLLQDELSCGEPPTCSPQQFTCFTGEIDCIPVAWRCDGFTECEDHSDELNCPVCSESQFQCASGQCIDGALRCNGDANCQDKSDEKNCEVLCLIDQFRCANGQCIGKHKKCDHNVDCSDKSDELDCYPTEEPAPQATNTVGSVIGVIVTIFVSGTVYFICQRMLCPRMKGDGETMTNDYVVHGPASVPLGYVPHPSSLSGSLPGMSRGKSMISSLSIMGGSSGPPYDRAHVTGASSSSSSSTKGTYFPAILNPPPSPATERSHYTMEFGYSSNSPSTHRSYSYRPYSYRHFAPPTTPCSTDVCDSDYAPSRRMTSVATAKGYTSDLNYDSEPVPPPPTPRSQYLSAEENYESCPPSPYTERSYSHHLYPPPPSPCTDSS	~1 ratio IP to input
phospho-LRP6 (Ser 1490) (receptor, human (endogenous in HEK293), UniProt O75581 20-1613, looked up, phosphoserine at 1490, LRP6 phosphorylated at Ser 1490, endogenous in HEK293 cells, detected with rabbit anti-phospho-LRP6 (Ser 1490) (CST 2568); also called p-LRP6; source: endogenous, HEK293 lysate) APLLLYANRRDLRLVDATNGKENATIVVGGLEDAAAVDFVFSHGLIYWSDVSEEAIKRTEFNKTESVQNVVVSGLLSPDGLACDWLGEKLYWTDSETNRIEVSNLDGSLRKVLFWQELDQPRAIALDPSSGFMYWTDWGEVPKIERAGMDGSSRFIIINSEIYWPNGLTLDYEEQKLYWADAKLNFIHKSNLDGTNRQAVVKGSLPHPFALTLFEDILYWTDWSTHSILACNKYTGEGLREIHSDIFSPMDIHAFSQQRQPNATNPCGIDNGGCSHLCLMSPVKPFYQCACPTGVKLLENGKTCKDGATELLLLARRTDLRRISLDTPDFTDIVLQLEDIRHAIAIDYDPVEGYIYWTDDEVRAIRRSFIDGSGSQFVVTAQIAHPDGIAVDWVARNLYWTDTGTDRIEVTRLNGTMRKILISEDLEEPRAIVLDPMVGYMYWTDWGEIPKIERAALDGSDRVVLVNTSLGWPNGLALDYDEGKIYWGDAKTDKIEVMNTDGTGRRVLVEDKIPHIFGFTLLGDYVYWTDWQRRSIERVHKRSAEREVIIDQLPDLMGLKATNVHRVIGSNPCAEENGGCSHLCLYRPQGLRCACPIGFELISDMKTCIVPEAFLLFSRRADIRRISLETNNNNVAIPLTGVKEASALDFDVTDNRIYWTDISLKTISRAFMNGSALEHVVEFGLDYPEGMAVDWLGKNLYWADTGTNRIEVSKLDGQHRQVLVWKDLDSPRALALDPAEGFMYWTEWGGKPKIDRAAMDGSERTTLVPNVGRANGLTIDYAKRRLYWTDLDTNLIESSNMLGLNREVIADDLPHPFGLTQYQDYIYWTDWSRRSIERANKTSGQNRTIIQGHLDYVMDILVFHSSRQSGWNECASSNGHCSHLCLAVPVGGFVCGCPAHYSLNADNRTCSAPTTFLLFSQKSAINRMVIDEQQSPDIILPIHSLRNVRAIDYDPLDKQLYWIDSRQNMIRKAQEDGSQGFTVVVSSVPSQNLEIQPYDLSIDIYSRYIYWTCEATNVINVTRLDGRSVGVVLKGEQDRPRAVVVNPEKGYMYFTNLQERSPKIERAALDGTEREVLFFSGLSKPIALALDSRLGKLFWADSDLRRIESSDLSGANRIVLEDSNILQPVGLTVFENWLYWIDKQQQMIEKIDMTGREGRTKVQARIAQLSDIHAVKELNLQEYRQHPCAQDNGGCSHICLVKGDGTTRCSCPMHLVLLQDELSCGEPPTCSPQQFTCFTGEIDCIPVAWRCDGFTECEDHSDELNCPVCSESQFQCASGQCIDGALRCNGDANCQDKSDEKNCEVLCLIDQFRCANGQCIGKHKKCDHNVDCSDKSDELDCYPTEEPAPQATNTVGSVIGVIVTIFVSGTVYFICQRMLCPRMKGDGETMTNDYVVHGPASVPLGYVPHPSSLSGSLPGMSRGKSMISSLSIMGGSSGPPYDRAHVTGASSSSSSSTKGTYFPAILNPPPSPATERSHYTMEFGYSSNSPSTHRSYSYRPYSYRHFAPPTTPCSTDVCDSDYAPSRRMTSVATAKGYTSDLNYDSEPVPPPPTPRSQYLSAEENYESCPPSPYTERSYSHHLYPPPPSPCTDSS	~1 ratio IP to input
